Molecular target: native human thyroglobulin (human) (UniProt P01266)
Test: cryo-EM structure; hTG at 2 mg/mL in 25 mM Tris-HCl pH 7.5, 150 mM NaCl, sodium azide; plunge frozen; C2 symmetry imposed; composite map at 3.2 Å

stoichiometry N: 2
Substance: native human thyroglobulin, P01266 20-2768
